Measurements taken from article PMC9170038.

B1: Eterna 7614506 (Exclusion - Tryptophan A) (ssRNA)
RNA: UAUAUAUAUCACGAACUGUGGUGUAUGUCUCGAGGACCGGUACGGCCGCCACUCGCGCGGCCUCACAUGAGGAUCACCCAUGUUG
B2: Eterna 7716240 (Exclusion - Theophylline B) (ssRNA)
RNA: GGUUUAUAAGAGGAUACCAGUACAAAUAAAGUACAUUAAUAGUAGAGUGAUGUUCUAAAGUACCCUUGGCAGCUUAGAUUAAGUU
B3: Eterna 7727518 (Exclusion - Tryptophan B) (ssRNA)
RNA: GUUUUGGGAUCGGCCGCCACUACAUGAGGAUCACCCAUGUGGACAAAUAGGGUUUUUAAGCUCGGUAGGACCGGGAUUCGAACAU
B4: Eterna 1699 (Same State - Theophylline B) (ssRNA)
RNA: UCGCAUUAACCGGAUACCAGCUUAGUGGGAUCUUCAAUCCGACAGAAAGUGAUGUUUUCUAGCCCUUGGCAGCCGAGAUUAUCAC
B5: Eterna 1186 (Exclusion - Theophylline B) (ssRNA)
RNA: GAUAGUUAGAGAGAUACCAGCGAUACCUAGAUGGAAAGUGAUGUUCGCCAUCAAUUGCACCGCCCUUGGCAGCUCUCUCUUUGCU
B6: Eterna 7740606 (Exclusion - Theophylline A) (ssRNA)
RNA: AAGUCUCGUUAAUUCGAGGUUACGAUCGAUACCAGUAGCGAGAGGUACCCUUGGCAGCGAAGUGAGUGAUGUUCAUGAAAGAAGA
B7: Eterna 6103763 (Same State NG 3) (ssRNA)
RNA: CAUUGACGACAAUUACAUGAGGAUCACCCAUGUUUUGGGAUGCAGGAUAUGUGGUAUAUUAAUUAACAGAAGGGCAAUAAUUUU
B8: Eterna 7742068 (Same State - Tryptophan B) (ssRNA)
RNA: AGUACAAUGGCGGCCGCCACUCAACGCAGAUCAAAGAUCUGCGUUCACUCAGUGAUGUUGAGUGAGAGGACCGGGCCUUUGUACA
B9: Eterna 1179 (Exclusion - Theophylline B) (ssRNA)
RNA: CACCCAGUCCUCGAUACCAGACUGGCACGUCAAAAGGUCCAGUGAUGUUGAGCCUAACAAGUCCCUUGGCAGCGACCAGUGUAUU
B10: Eterna 7684838 (Same State - Theophylline A) (ssRNA)
RNA: AAAUUUAAUAUAUUUAAAUAAAUAUGUGAUACCAGACAUUUAUAAGUCCCUUGGCAGCACAAUGCAGUGAUGUUGCUUAUAAUAA
B11: Eterna 7700218 (Same State - Theophylline A) (ssRNA)
RNA: UGGUUAAGCAGUGAUGUUGCAAGUGAUGAUACCAGUUAAGAAGAGAACCCUUGGCAGCAUAAAGUGCGCUCUGAUGAGUGUGCUU
B12: Eterna 7739799 (Exclusion - Arginine A) (ssRNA)
RNA: CAGACCACAGAGUGAUGUUCUGUGUCCGAAGGAGCGCGCGAGAGCGCAGGUAGGUCGCGGAUACAGUUGACGUACCUUCAAGACA
B13: Eterna 7686162 (Exclusion - FMN A) (ssRNA)
RNA: UACAUAUAAUUAUUUCUACAUUUAUUUAGUCAGGAUAUCGAUUAAACGAGAAGGGACAAUAUCAAGUGAUGUUUGAUAAUUCAAA
B14: Eterna 1729 (Same State - Tryptophan A) (ssRNA)
RNA: GGAGUCCCGUUAGAUUGUGUAGAUACAAGACGAGGACCGGUACGGCCGCCACUCGCCAUCGUCCAGUGAUGUUGGGCGUCACGGG
B15: Eterna 7646211 (Same State - Theophylline A) (ssRNA)
RNA: CAUACUUUAGUAUGUAAUGUGGACAGUGAUACCAGAUACGAAAGUAUCCCUUGGCAGCACAACAUGAGGAUCACCCAUGUAUUUU

Columns and labels:
[1] = system: Tryptophan aptamer, RNA-MaP condition construct (RNA, aptamer) GGAAAGGCGAGCGGCCGCCACUGUUCGCAGGACCGGGCUCGCCAAAGAAACAACAACAACAAC; assay: DMS chemical mapping; settings: 80 mM KCl, 4 mM MgCl2; 100 mM Tris-HCl, pH 7.5, 37 °C
[2] = system: Tryptophan aptamer, Light-up construct (RNA, aptamer) GGGAACGUCUCCGAGUAGGAGACGAAGGGAGAGUGGCAGCUUACAAACUACAGUUGCGGCCGCCACUGCGAAGGACGGGUCCCUCGAAAGAGGUUGAGUAGAGUGUGAGCGCAGGACCGGGCAACAGUAGUAAGUGGGCUGUUGCUUUUCCAAGCUUAUCGAGUAGAUAAGCAAAAAGAAACAACAACAACAAC; assay: DMS chemical mapping; settings: 5 mM MgCl2, 1x PBS, pH 6.1, 24 °C
[3] = system: BH_E029 (RNA, aptamer) GGGAGAGUGGCAGCUUACAACGUAACGAUGCGGCCGCCACUGAUCCGACUGGUUAACAGAAAGUCCUGACCAGGUAACGAAUGGUCAGGACCGGGCAUUGUUACGAAGUGGGCUGUUGCUUUUCC; assay: light-up fluorescence kinetics (malachite green); settings: 5 mM MgCl2, 1x PBS, pH 6.1, 2.4 mM Trp with malachite green present
[4] = molecular target: T1, MS2 coat protein, dlFG mutant (Escherichia phage MS2, UniProt P03612, del68-81insG); assay: 4 mM Mg2+; L-tryptophan 2.4 mM; RNA-MaP array; 100 mM Tris-HCl pH 7.5, 80 mM KCl, 4 mM MgCl2, 0.1 mg/mL BSA, 1 mM DTT, 0.01 mg/mL yeast tRNA, 0.01% Tween-20; protein 1.5 nM to 3 uM; 37 C (Table S3); settings: chain copies: 2; label: tethered by stalled RNA polymerase
[5] = molecular target: T1, MS2 coat protein, dlFG mutant; assay: 4 mM Mg2+; no ligand; RNA-MaP array; 100 mM Tris-HCl pH 7.5, 80 mM KCl, 4 mM MgCl2, 0.1 mg/mL BSA, 1 mM DTT, 0.01 mg/mL yeast tRNA, 0.01% Tween-20; protein 1.5 nM to 3 uM; 37 C (Table S3); settings: chain copies: 2; label: tethered by stalled RNA polymerase
[6] = molecular target: T1, MS2 coat protein, dlFG mutant; assay: 4 mM Mg2+; FMN 200 uM; RNA-MaP array; 100 mM Tris-HCl pH 7.5, 80 mM KCl, 4 mM MgCl2, 0.1 mg/mL BSA, 1 mM DTT, 0.01 mg/mL yeast tRNA, 0.01% Tween-20; protein 1.5 nM to 3 uM; 37 C (Table S3); settings: chain copies: 2; label: tethered by stalled RNA polymerase
[7] = molecular target: T1, MS2 coat protein, dlFG mutant; assay: 4 mM Mg2+; theophylline 2 mM; RNA-MaP array; 100 mM Tris-HCl pH 7.5, 80 mM KCl, 4 mM MgCl2, 0.1 mg/mL BSA, 1 mM DTT, 0.01 mg/mL yeast tRNA, 0.01% Tween-20; protein 1.5 nM to 3 uM; 37 C (Table S3); settings: chain copies: 2; label: tethered by stalled RNA polymerase

Row | Molecule | Kd [5] | also measured
1 | N[C@@H](Cc1c[nH]c2ccccc12)C(=O)O | – | Kd [1]: 12.09 ± 10.50/-5.19 μM; Kd [2]: 11.59 ± 9.49/-5.00 μM; binding [3]: yes
2 | B1 | – | Kd [4]: 46 nM
3 | B2 | > 3000 nM | –
4 | B3 | – | Kd [4]: 67.5 nM
5 | B4 | > 3000 nM | –
6 | B5 | > 3000 nM | –
7 | B6 | > 3000 nM | –
8 | B7 | – | Kd [6]: 35.5 nM
9 | UUUGGGCAGUGAUGUUGCCCCUUU (ssRNA) [Eterna 7 (K4-TR_control)] | > 3000 nM | –
10 | B8 | > 3000 nM | –
11 | B9 | > 3000 nM | –
12 | B10 | > 3000 nM | –
13 | B11 | > 3000 nM | –
14 | B12 | > 3000 nM | –
15 | B13 | > 3000 nM | –
16 | B14 | > 3000 nM | –
17 | B15 | – | Kd [7]: 13.4 nM
